Test results published in US10766960 (dated 2020).
Changes are numbered by the printed parent chain. Where two headings read alike, the source gives them in different places. Values belong to the binder of their own block, whether it stands above or below them.

What was measured:
Experiment in all cases: SPR
[1] = molecular target: T1, FcgRIIa H (human, UniProt P12318)
T1 chain: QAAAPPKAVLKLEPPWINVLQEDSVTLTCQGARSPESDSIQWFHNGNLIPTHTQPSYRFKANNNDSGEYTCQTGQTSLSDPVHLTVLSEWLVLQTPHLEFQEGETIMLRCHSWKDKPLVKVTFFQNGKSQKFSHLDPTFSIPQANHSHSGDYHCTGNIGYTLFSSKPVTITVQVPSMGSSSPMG

[2] = molecular target: T2, FcgRIa (human, UniProt P12314)
T2 chain: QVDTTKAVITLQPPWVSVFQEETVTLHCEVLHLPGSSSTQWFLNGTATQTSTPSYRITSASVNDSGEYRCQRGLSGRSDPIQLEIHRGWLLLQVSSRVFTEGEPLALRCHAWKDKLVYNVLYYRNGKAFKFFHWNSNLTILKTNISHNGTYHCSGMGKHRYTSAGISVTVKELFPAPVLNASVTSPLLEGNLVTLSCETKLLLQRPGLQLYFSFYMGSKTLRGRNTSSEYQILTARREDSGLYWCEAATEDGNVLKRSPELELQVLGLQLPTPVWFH

[3] = molecular target: T3, FcgRIIb (human, UniProt P31994)
T3 chain: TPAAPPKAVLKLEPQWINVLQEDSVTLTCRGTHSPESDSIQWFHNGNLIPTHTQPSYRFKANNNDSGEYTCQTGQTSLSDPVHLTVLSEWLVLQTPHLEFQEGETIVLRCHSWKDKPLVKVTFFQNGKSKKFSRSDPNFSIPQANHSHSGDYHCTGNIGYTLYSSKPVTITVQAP

[4] = molecular target: T4, FcgRIIIa F (human, UniProt P08637)
T4 sequence (P08637 17-208): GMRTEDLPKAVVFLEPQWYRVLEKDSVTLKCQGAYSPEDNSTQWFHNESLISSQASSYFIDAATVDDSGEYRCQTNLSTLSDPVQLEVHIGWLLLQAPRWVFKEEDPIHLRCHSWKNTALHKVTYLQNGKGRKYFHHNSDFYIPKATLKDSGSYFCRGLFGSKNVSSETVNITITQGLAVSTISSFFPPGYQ

[5] = molecular target: T5, FcgRIIIa V (human, UniProt P08637)
T5 sequence (P08637 17-208 F176V): as the sequence (P08637 17-208) above, with F160V counted along it

[6] = molecular target: T6, FcgRIIa R (human, UniProt P12318)
T6 chain: T1 chain with H134R

[7] = molecular target: T6, FcgRIIa R
[8] = molecular target: T2, FcgRIa
[9] = molecular target: T5, FcgRIIIa V; remark: listed apart in the source
[10] = molecular target: T1, FcgRIIa H
[11] = molecular target: T3, FcgRIIb
[12] = molecular target: T4, FcgRIIIa F; remark: listed apart in the source

B1: H240-Kn166/H240-Hl170/L73-k0 (antibody)
chain 1: QDQLVQSGAEVKKPGASVKVSCKASGFNIKDTYIQWVRQAPGQGLEWMGRIDPLRKQTKYREKFEGRVTITADTSTNTAYMELSSLRSEDTAVYYCVRSGREFDYWGQGTLVTVSSASTKGPSVFPLAPSSKSTSGGTAALGCLVKDYFPEPVTVSWNSGALTSGVHTFPAVLQSSGLYSLSSVVTVPSSSLGTQTYICNVNHKPSNTKVDKKVEPKSCDKTHTCPPCPAPEYYWGPMVFLFPPKPKDTLMISRTPEVTCVVVDVSDEDPEVKFNWYVDGVEVHNAKTKPREEQYNATYRVVSVLTVLHQDWLNGKEYKCKVSNKDAPAPIEKTISKAKGQPREPQVCTLPPSRDELTKNQVSLWCLVKGFYPSDIAVEWESNGQPENNYKTTPPVLDSDGSFFLYSKLTVDKSRWQQGNVFSCSVMHEALHNHYTQKSLSLSP
chain 2: QDQLVQSGAEVKKPGASVKVSCKASGFNIKDTYIQWVRQAPGQGLEWMGRIDPLRKQTKYREKFEGRVTITADTSTNTAYMELSSLRSEDTAVYYCVRSGREFDYWGQGTLVTVSSASTKGPSVFPLAPSSKSTSGGTAALGCLVKDYFPEPVTVSWNSGALTSGVHTFPAVLQSSGLYSLSSVVTVPSSSLGTQTYICNVNHKPSNTKVDKKVEPKSCDKTHTCPPCPAPELLGGPSVFLFPPKPKDTLMISRTPEVTCVVVDVSHEEPEVKFNWYVDGVEVHNAKTKPREEQYNSTYRVVSVLTVLHQDWLNGKEYKCKVSNDAAPKPIEETISKAKGQPREPQVYTLPPSRCELTKNQVSLSCAVKGFYPSDIAVEWESNGQPENNYKTTPPVLDSDGSFFLVSKLTVDKSRWQQGNVFSCSVMHEALHNHYTQKSLSLSP
chain 3: DIQMTQSPSSLSASVGDRVTITCRASQDIHKYIAWYQQKPGQAPRLLIQYTSTLQPGVPSRFSGSGSGTDYTFTISSLQPEDIATYYCLQYEQLRTFGGGTKVEIKRTVAAPSVFIFPPSDEQLKSGTASVVCLLNNFYPREAKVQWKVDNALQSGNSQESVTEQDSKDSTYSLSSTLTLSKADYEKHKVYACEVTHQGLSSPVTKSFNRGEC
Kd [1]: 22 nM
Kd [2]: 0.066 nM
Kd [3]: 200 nM
Kd [4]: 4.2 nM
Kd [5]: 1 nM
Kd [6]: 31 nM

B3: H240-Kn202/H240-Hl210/L73-k0 (antibody)
chain 1: B1 chain 1 with Y233E, Y234Q, D269E, D326A, A327L
chain 2: B1 chain 2 with A327L, K329A
chain 3: B1 chain 3
Kd [7]: 320 nM
Kd [8]: 0.17 nM
Kd [9]: 0.53 nM
Kd [10]: 230 nM
Kd [11]: 2200 nM
Kd [12]: 3.3 nM

B4: H240-Kn226/H240-Hl214/L73-k0 (antibody)
chain 1: B1 chain 1 with Y233F, Y234Q, M238I, D269E, D326A, A327L
chain 2: B1 chain 2 with A327L, K329F
chain 3: B1 chain 3
Kd [7]: 360 nM
Kd [8]: 0.089 nM
Kd [9]: 0.77 nM
Kd [10]: 160 nM
Kd [11]: 3400 nM
Kd [12]: 1.9 nM

B5: H240-Kn228/H240-Hl210/L73-k0 (antibody)
chain 1: B1 chain 1 with Y233D, Y234Q, M238I, D269E, D326A, A327L
chain 2: B1 chain 2 with A327L, K329A
chain 3: B1 chain 3
Kd [7]: 200 nM
Kd [8]: 0.16 nM
Kd [9]: 0.81 nM
Kd [10]: 190 nM
Kd [11]: 1700 nM
Kd [12]: 4.4 nM

B6: H240-Kn201/H240-Hl068/L73-k0 (antibody)
chain 1: B1 chain 1 with Y233F, Y234Q, D269E, D326A, A327L
chain 2: B1 chain 2 with A327L
chain 3: B1 chain 3
Kd [7]: 360 nM
Kd [8]: 0.26 nM
Kd [9]: 1.2 nM
Kd [10]: 56 nM
Kd [11]: 3900 nM
Kd [12]: 5.3 nM

B10: H240-Kn203/H240-Hl210/L73-k0 (antibody)
chain 1: B1 chain 1 with Y233F, A327L
chain 2: B1 chain 2 with A327L, K329A
chain 3: B1 chain 3
Kd [7]: 56 nM
Kd [8]: 0.16 nM
Kd [9]: 0.45 nM
Kd [10]: 93 nM
Kd [11]: 300 nM
Kd [12]: 3 nM

B11: H240-Kn232/H240-Hl068/L73-k0 (antibody)
chain 1: B1 chain 1 with Y233L, M238I, A327L
chain 2: B1 chain 2 with A327L
chain 3: B1 chain 3
Kd [7]: 17 nM
Kd [8]: 0.23 nM
Kd [9]: 0.86 nM
Kd [10]: 25 nM
Kd [11]: 190 nM
Kd [12]: 3 nM

B15: H240-Kn231/H240-Hl068/L73-k0 (antibody)
chain 1: B1 chain 1 with Y233I, M238I, A327L
chain 2: B1 chain 2 with A327L
chain 3: B1 chain 3
Kd [7]: 8.9 nM
Kd [8]: 0.18 nM
Kd [9]: 0.73 nM
Kd [10]: 16 nM
Kd [11]: 120 nM
Kd [12]: 2.9 nM

B17: H240-Kn198/H240-Hl210/L73-k0 (antibody)
chain 1: B1 chain 1 with Y233L, Y234Q, D269E, D326A, A327L
chain 2: B1 chain 2 with A327L, K329A
chain 3: B1 chain 3
Kd [7]: 480 nM
Kd [8]: 0.047 nM
Kd [9]: 1 nM
Kd [10]: 120 nM
Kd [11]: 3100 nM
Kd [12]: 4.9 nM

The remaining lines, values ahead:

Kd [7]: 280 nM
Kd [8]: 0.5 nM
Kd [9]: 1.2 nM
Kd [10]: 69 nM
Kd [11]: 2800 nM
Kd [12]: 4.6 nM
B2: H240-Kn200/H240-Hl068/L73-k0 (antibody)
chain 1: B1 chain 1 with Y233S, Y234Q, D269E, D326A, A327L
chain 2: B1 chain 2 with A327L
chain 3: B1 chain 3

Kd [7]: 260 nM
Kd [8]: 0.17 nM
Kd [9]: 0.91 nM
Kd [10]: 230 nM
Kd [11]: 2500 nM
Kd [12]: 4.4 nM
B7: H240-Kn227/H240-Hl210/L73-k0 (antibody)
chain 1: B1 chain 1 with Y233E, Y234Q, M238I, D269E, D326A, A327L
chain 2: B1 chain 2 with A327L, K329A
chain 3: B1 chain 3

Kd [7]: 320 nM
Kd [8]: 0.12 nM
Kd [9]: 0.77 nM
Kd [10]: 270 nM
Kd [11]: 2300 nM
Kd [12]: 1.9 nM
B8: H240-Kn228/H240-Hl214/L73-k0 (antibody)
chain 1: B1 chain 1 with Y233D, Y234Q, M238I, D269E, D326A, A327L
chain 2: B1 chain 2 with A327L, K329F
chain 3: B1 chain 3

Kd [7]: 720 nM
Kd [8]: 0.053 nM
Kd [9]: 0.9 nM
Kd [10]: 420 nM
Kd [11]: 4500 nM
Kd [12]: 3 nM
B9: H240-Kn208/H240-Hl214/L73-k0 (antibody)
chain 1: B1 chain 1 with Y233D, Y234Q, D269E, D326A, A327L
chain 2: B1 chain 2 with A327L, K329F
chain 3: B1 chain 3

Kd [7]: 23 nM
Kd [8]: 0.15 nM
Kd [9]: 0.87 nM
Kd [10]: 37 nM
Kd [11]: 220 nM
Kd [12]: 2.7 nM
B12: H240-Kn235/H240-Hl068/L73-k0 (antibody)
chain 1: B1 chain 1 with Y233F, M238I, A327L
chain 2: B1 chain 2 with A327L
chain 3: B1 chain 3

Kd [1]: 57 nM
Kd [2]: 0.12 nM
Kd [3]: 280 nM
Kd [4]: 1.8 nM
Kd [5]: 0.4 nM
Kd [6]: 40 nM
B13: H240-Kn173/H240-Hl068/L73-k0 (antibody)
chain 1: B1 chain 1 with A327L, I331Q
chain 2: B1 chain 2 with A327L
chain 3: B1 chain 3

Kd [1]: 130 nM
Kd [2]: 0.31 nM
Kd [3]: 110 nM
Kd [4]: 22 nM
Kd [5]: 16 nM
Kd [6]: 11 nM
B14: H240-Kn138/H240-Hl147/L73-k0 (antibody)
chain 1: B1 chain 1 with A327W
chain 2: B1 chain 2 with A327W
chain 3: B1 chain 3

Kd [7]: 480 nM
Kd [8]: 0.18 nM
Kd [9]: 1.2 nM
Kd [10]: 170 nM
Kd [11]: 2600 nM
Kd [12]: 5.7 nM
B16: H240-Kn200/H240-Hl210/L73-k0 (antibody)
chain 1: B1 chain 1 with Y233S, Y234Q, D269E, D326A, A327L
chain 2: B1 chain 2 with A327L, K329A
chain 3: B1 chain 3
